Data from patent US20230270636A1, “GOLD AND PALMITOYL PENTAPEPTIDE-4 NANOPARTICLES” (INFINITEC ACTIVOS, S.L., priority 2018, published 2023).
Where a SMILES comes first, the peptide text is derived from it. Where no end group is shown, it is not given here. The star is where a group is joined. Palmitoyl = CCCCCCCCCCCCCCCC(=O)*

Tests used:
[1] = Cutaneous penetration using Franz diffusion cells; format: in vitro ADME; conditions: pig skin, 20 h incubation; for Cutaneous penetration (skin layers reached): 32° C., receptor solution analysed; for Change in cutaneous penetration upon conjugating the peptide with gold nanoparticles: FIG. 1
Experimental: Cutaneous penetration was determined using Franz cells. The pig skin samples used in the experiments were cut into circles 3 cm in diameter. The pig skin was mounted on the receptor compartment of a Franz diffusion cell system with the stratum corneum facing up towards the donor compartment. 18 ml of phosphate-buffered saline (PBS) were used as receptor solution. An aliquot of the test samples (nanoparticles of Example 1 (GNP-P1), nanoparticles of Example 2 (GNP-P2), nanoparticles of Example 3 (GNP), formulation of peptide P1 of Example 4, formulation of peptide P2 of Example 5, mixture of nanoparticles and peptide P1 (GNP+P1) of Example 6 was applied on the pig skin. The Franz diffusion cells were mounted on an H+P Labortechnik Varimag Telesystem (Munich, Germany) and placed in a thermostatic bath (Haake).
Untreated skin control was also included. The Franz diffusion cells were kept at 32° C., and after 20 h of incubation, the receptor solution was analyzed by means of UV-visible absorption spectroscopy using a Shimadzu spectrophotometer UV-1800 (Parc Cientific of Barcelona) and quartz cuvettes (Hellma Analytics) to quantify the amount of gold nanoparticles present (GNP, GNP-P1, and GNP-P2). The amount of free peptide (P1, P2) was determined by means of HPLC, using a Waters 996 photodiode array detector instrument equipped with a Waters 2695 separation module and Millenium software. An Xbridge BEH130 C18 4.6×100 mm 3.5 μm reverse phase HPLC column by Waters was used. In both cases, UV detection was performed at 220 nm. Peptide P1 was analyzed with a mobile phase B gradient of 5 to 100% for 8 minutes at a flow rate of 1.0 ml/min, the retention time being 6.5 minutes. Peptide P2 was analyzed with a mobile phase B gradient of 0 to 20% for 8 minutes at a flow rate of 1.0 ml/min, the retention time being 1.5 minutes. The eluents used in both cases were: Mobile phase A: 0.045% of TFA/H2O, mobile phase B: 0.036% of TFA/ACN.

[2] = Zeta potential of nanoparticles (Zetasizer Nano ZS); format: physicochemical; conditions: 1 mg/mL in water, 25° C.
Experimental: The preparation of the samples for determining the Z potential consists of weighing 1 mg if it is powder and it is suspended in 1 mL of milli-Q H2O. Whereas in the case of liquid samples, a 100 μL aliquot of the sample to which 900 μL of milli-Q H2O are added is collected with an automatic pipette. Then the Z potential measurement is taken using DTS1070 plastic cuvettes and Zetasizer Nano ZS series equipment (Malvern Instruments) of the Instituto de Quimica Avanzada de Cataluña (Advanced Chemistry Institute of Catalonia), CSIC.
(§1) The Z potential of the nanoparticles synthesized was determined using DTS1070 plastic cuvettes and Zetasizer Nano ZS series equipment (Malvern Instruments, of the Instituto de Quimica Avanzada de Cataluña, CSIC). The preparation of the samples consists of 1 mg if it is powder and it is suspended in 1 mL of milli-Q H2O. In the case of liquid samples, a 100 μL aliquot of the sample to which 900 μL of milli-Q H2O are added is collected with an automatic pipette such that there is always a concentration of 1 mg/mL of sample. Then the Z potential measurement is taken at a temperature of 25° C.

[3] = Concentration of peptide incorporated in nanoparticles by HPLC; format: physicochemical; conditions: UV 220 nm
Experimental: The concentration of the peptide (P1 or P2) incorporated in the nanoparticles (GNP-P1 and/or GNP-P2) was determined by HPLC, using a Waters 996 photodiode array detector instrument equipped with a Waters 2695 separation module and Millenium software. An Xbridge BEH130 C18 4.6×100 mm 3.5 μm reverse phase HPLC column by Waters was used. UV detection was performed at 220 nm, and a mobile phase B gradient of 5 to 100% was performed for 8 minutes at a flow rate of 1.0 ml/min. Under these conditions, the retention time being 6.4 min for both peptides P1 and P2. Mobile phase A: 0.045% of TFA/H2O, mobile phase B: 0.036% of TFA/ACN.

[4] = Nanoparticle size by dynamic light scattering (DLS); format: physicochemical; conditions: 1 mg/mL in water, 25° C.
Experimental: The size of the nanoparticles can be determined by means of conventional methods in the art, particularly by means of dynamic light scattering (DLS). First the samples are prepared to determine particle size. To that end, 1 mg is weighed if it is powder and it is suspended in 1 mL of milli-Q H2O. In the case of liquid samples, a 100 μL aliquot of the sample to which 900 μL of milli-Q H2O are added is collected with an automatic pipette. Then the particle size measurement is taken using quartz cuvettes and Zetasizer Nano ZS series equipment (Malvern Instruments) of the Instituto de Quimica Avanzada de Cataluña (Advanced Chemistry Institute of Catalonia), CSIC.
as §1, with “The size” for “The Z potential”, “nanoparticles (GNP, GNP-P1, and GNP-P2)” for “nanoparticles synthesized”, “determined by dynamic light scattering (DLS) for which quartz” for “determined using DTS1070 plastic”, “Instruments,” for “Instruments, of the”, “de Cataluña) were used.” for “de Cataluña, CSIC).”, “the particle size” for “the Z potential”

Compound | Cutaneous penetration (skin layers reached) [1] | Change in cutaneous penetration upon conjugating the peptide with gold nanoparticles [1] | Nanoparticle Zeta potential [2] [mV] | Maximum concentration of peptide in nanoparticles [3] [mg/mL] | Nanoparticle diameter [4]
CCCCCCCCCCCCCCCC(=O)N[C@@H](CCCCN)C(=O)N[C@H](C(=O)N[C@H](C(=O)N[C@@H](CCCCN)C(=O)N[C@@H](CO)C(=O)O)[C@@H](C)O)[C@@H](C)O [Example P1, Palm-L-Lys-L-Thr-L-Thr-L-Lys-L-Ser-OH] (Palmitoyl-KTTKS-OH) | only penetrated the outermost layers external of the skin |  |  |  | 
Palm-L-Cys-L-Lys-L-Thr-L-Thr-L-Lys-L-Ser-L-Cys-L-Thr-L-Thr-L-Lys-L-Ser-OH [Example P2] |  | increase in penetration is not observed |  |  | 
GNP − P1: gold nanoparticles conjugated with the peptide of formula (I) wherein R is a palmitoyl moiety (Palm-SEQ ID NO: 1) (Palmitoyl-KTTKS; also: conjugated to gold nanoparticles) | penetration reached more internal layers such as the epidermis and dermis | considerable increase in penetration | −35 | 0.3 | 150-200 nm
GNP − P2: gold nanoparticles conjugated with the peptide of formula (II) (P2; Palm-SEQ ID NO: 2) (Palmitoyl-CKTTKSCTTKS; cysteine pairing not given here; also: conjugated to gold nanoparticles) |  |  | −59 | 0.3 | 150-200 nm
